Reference: the supplement of paper PMC5998384

What was measured:
[1] = system: HeLa Kyoto; assay: solubility in G1/S (NP-40 vs SDS abundance) (log2 ratio); higher = more soluble; conditions: cell cycle stage: G1/S
[2] = system: HeLa Kyoto; assay: solubility change mitosis vs G1/S (difference of NP-40 vs SDS log2 ratios) (log2 ratio difference); higher = more soluble in mitosis
[3] = system: HeLa Kyoto; assay: melting temperature (median over replicates), in situ; higher = more thermally stable
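Wherever melting temperature (median over replicates), in situ is given: HeLa Kyoto cells synchronized by double thymidine or nocodazole block, proteins quantified by TMT10plex mass spectrometry, three independent biological replicates.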
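Wherever solubility change mitosis vs G1/S (difference of NP-40 vs SDS log2 ratios) is given: synchronized HeLa Kyoto cells (double thymidine block for G1/S, nocodazole release for mitosis), protein amounts in NP-40 versus SDS lysates quantified by mass spectrometry, three biological replicates.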
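Wherever solubility in G1/S (NP-40 vs SDS abundance) is given: HeLa Kyoto cells arrested at G1/S by double thymidine block, proteins quantified by TMT10plex mass spectrometry in mild NP-40 versus SDS extracts, three biological replicates.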

Sequence	solubility in G1/S (log2) [1]	solubility change mitosis (log2) [2]	melting temperature ([3]; cell cycle stage: G1/S)	melting temperature ([3]; cell cycle stage: mitosis)
MSCGNEFVETLKKIGYPKADNLNGEDFDWLFEGVEDESFLKWFCGNVNEQNVLSERELEAFSILQKSGKPILEGAALDEALKTCKTSDLKTPRLDDKELEKLEDEVQTLLKLKNLKIQRRNKCQLMASVTSHKSLRLNAKEEEATKKLKQSQGILNAMITKISNELQALTDEVTQLMMFFRHSNLGQGTNPLVFLSQFSLEKYLSQEEQSTAALTLYTKKQFFQGIHEVVESSNEDNFQLLDIQTPSICDNQEILEERRLEMARLQLAYICAQHQLIHLKASNSSMKSSIKWAEESLHSLTSKAVDKENLDAKISSLTSEIMKLEKEVTQIKDRSLPAVVRENAQLLNMPVVKGDFDLQIAKQDYYTARQELVLNQLIKQKASFELLQLSYEIELRKHRDIYRQLENLVQELSQSNMMLYKQLEMLTDPSVSQQINPRNTIDTKDYSTHRLYQVLEGENKKKELFLTHGNLEEVAEKLKQNISLVQDQLAVSAQEHSFFLSKRNKDVDMLCDTLYQGGNQLLLSDQELTEQFHKVESQLNKLNHLLTDILADVKTKRKTLANNKLHQMEREFYVYFLKDEDYLKDIVENLETQSKIKAVSLED [HAUS3]	0.0967	0.224	48.6 °C	49.8 °C
MSDCYTELEKAVIVLVENFYKYVSKYSLVKNKISKSSFREMLQKELNHMLSDTGNRKAADKLIQNLDANHDGRISFDEYWTLIGGITGPIAKLIHEQEQQSSS [S100A16]	-0.172	0.301	51.3 °C	
MSDESASGSDPDLDPDVELEDAEEEEEEEEVAVEECDRDDEEDLLDDPSLEGMCGTEHAQLGEDGQQPPRCTSTTSSQSEPSEQLRRHQGKNLASEDPKKKRAQKPSHMRRNIRKLLREDQLEPVTKAAQQEELERRKRLEQQRKDYAAPIPTVPLEFLPEEIALRASDGPQLPPRVLAQEVICLDSSSGSEDEKSSRDEVIELSSGEEDTLHIVDSSESVSEDDEEEEKGGTHVNDVLNQRDALGRVLVNLNHPPEEENVFLAPQLARAVKPHQIGGIRFLYDNLVESLERFKTSSGFGCILAHSMGLGKTLQVISFIDVLFRHTPAKTVLAIVPVNTLQNWLAEFNMWLPPPEALPADNKPEEVQPRFFKVHILNDEHKTMASRAKVMADWVSEGGVLLMGYEMYRLLTLKKSFATGRPKKTKKRSHPVIIDLDEEDRQQEFRREFEKALCRPGPDVVICDEGHRIKNCQASTSQALKNIRSRRRVVLTGYPLQNNLIEYWCMVDFVRPDFLGTRQEFSNMFERPILNGQCIDSTPQDVRLMRYRSHVLHSLLEGFVQRRGHTVLKIHLPAKEENVILVRLSKIQRDLYTQFMDRFRDCGSSGWLGLNPLKAFCVCCKIWNHPDVLYEALQKESLANEQDLDVEELGSAGTSARCPPQGTKGKGEDSTLASSMGEATNSKFLQGVGFNPFQERGNNIVTYEWAKDLLTNYQTGVLENSPKMVLLFHLIEESVKLGDKILVFSQSLSTLALIEEFLGKREVPCPPGTEGQGAQKWVRNISYFRLDGSTPAFERERLINQFNDPSNLTTWLFLLSTRAGCLGVNLIGANRVVVFDASWNPCHDAQAVCRVYRYGQKKPCYIYRLVADYTLEKKIYDRQISKQGMSDRVVDDLNPMLNFTRKEVENLLHFVEKEPAPQVSLNVKGIKESVLQLACLKYPHLITKEPFEHESLLLNRKDHKLTKAEKKAAKKSYEEDKRTSVPYTRPSYAQYYPASDQSLTSIPAFSQRNWQPTLKGDEKPVASVRPVQSTPIPMMPRHVPLGGSVSSASSTNPSMNFPINYLQRAGVLVQKVVTTTDIVIPGLNSSTDVQARINAGESIHIIRGTKGTYIRTSDGRIFAVRATGKPKVPEDGRMAASGSQGPSCESTSNGRHSASSPKAPDPEGLARPVSPDSPEIISELQQYADVAAARESRQSSPSTNAALPGPPAQLMDSSAVPGTALGTEPRLGGHCLNSSLLVTGQPCGDRHPVLDLRGHKRKLATPPAAQESSRRRSRKGHLPAPVQPYEHGYPVSGGFAMPPVSLNHNLTTPFTSQAGENSLFMGSTPSYYQLSNLLADARLVFPVTTDPLVPAGPVSSSSTATSVTASNPSFMLNPSVPGILPSYSLPFSQPLLSEPRMFAPFPSPVLPSNLSRGMSIYPGYMSPHAGYPAGGLLRSQVPPFDSHEVAEVGFSSNDDEDKDDDVIEVTGK [RAD54L2]	-0.0448	-0.143		49.7 °C
MSGAGEALAPGPVGPQRVAEAGGGQLGSTAQGKCDKDNTEKDITQATNSHFTHGEMQDQSIWGNPSDGELIRTQPQRLPQLQTSAQVPSGEEIGKIKNGHTGLSNGNGIHHGAKHGSADNRKLSAPVSQKMHRKIQSSLSVNSDISKKSKVNAVFSQKTGSSPEDCCVHCILACLFCEFLTLCNIVLGQASCGICTSEACCCCCGDEMGDDCNCPCDMDCGIMDACCESSDCLEICMECCGICFPS [MDFIC]	-0.698	0.671	57.2 °C	55.7 °C
MSGLDGVKRTTPLQTHSIIISDQVPSDQDAHQYLRLRDQSEATQVMAEPGEGGSETVALPPPPPSEEGGVPQDAAGRGGTPQIRVVGGRGHVAIKAGQEEGQPPAEGLAAASVVMAADRSLKKGVQGGEKALEICGAQRSASELTAGAEAEAEEVKTGKCATVSAAVAERESAEVVKEGLAEKEVMEEQMEVEEQPPEGEEIEVAEEDRLEEEAREEEGPWPLHEALRMDPLEAIQLELDTVNAQADRAFQQLEHKFGRMRRHYLERRNYIIQNIPGFWMTAFRNHPQLSAMIRGQDAEMLRYITNLEVKELRHPRTGCKFKFFFRRNPYFRNKLIVKEYEVRSSGRVVSLSTPIIWRRGHEPQSFIRRNQDLICSFFTWFSDHSLPESDKIAEIIKEDLWPNPLQYYLLREGVRRARRRPLREPVEIPRPFGFQSG [TSPYL1]	-0.443	0.141	51.2 °C	49.9 °C
MSLQSRLSGRLAQLRAAGQLLVPPRPRPGHLAGATRTRSSTCGPPAFLGVFGRRARTSAGVGAWGAAAVGRTAGVRTWAPLAMAAKVDLSTSTDWKEAKSFLKGLSDKQREEHYFCKDFVRLKKIPTWKEMAKGVAVKVEEPRYKKDKQLNEKISLLRSDITKLEVDAIVNAANSSLLGGGGVDGCIHRAAGPLLTDECRTLQSCKTGKAKITGGYRLPAKYVIHTVGPIAYGEPSASQAAELRSCYLSSLDLLLEHRLRSVAFPCISTGVFGYPCEAAAEIVLATLREWLEQHKDKVDRLIICVFLEKDEDIYRSRLPHYFPVA [MACROD1]	0.246	-0.147	50.6 °C	51.1 °C
MSLVDLGKKLLEAARAGQDDEVRILMANGAPFTTDWLGTSPLHLAAQYGHYSTTEVLLRAGVSRDARTKVDRTPLHMAASEGHASIVEVLLKHGADVNAKDMLKMTALHWATEHNHQEVVELLIKYGADVHTQSKFCKTAFDISIDNGNEDLAEILQIAMQNQINTNPESPDTVTIHAATPQFIIGPGGVVNLTGLVSSENSSKATDETGVSAVQFGNSSTSVLATLAALAEASAPLSNSSETPVVATEEVVTAESVDGAIQQVVSSGGQQVITIVTDGIQLGNLHSIPTSGIGQPIIVTMPDGQQVLTVPATDIAEETVISEEPPAKRQCIEIIENRVESAEIEEREALQKQLDEANREAQKYRQQLLKKEQEAEAYRQKLEAMTRLQTNKEAV [GABPB1]	0.111	-0.139	46.9 °C	49.7 °C
MSQSRHRAEAPPLEREDSGTFSLGKMITAKPGKTPIQVLHEYGMKTKNIPVYECERSDVQIHVPTFTFRVTVGDITCTGEGTSKKLAKHRAAEAAINILKANASICFAVPDPLMPDPSKQPKNQLNPIGSLQELAIHHGWRLPEYTLSQEGGPAHKREYTTICRLESFMETGKGASKKQAKRNAAEKFLAKFSNISPENHISLTNVVGHSLGCTWHSLRNSPGEKINLLKRSLLSIPNTDYIQLLSEIAKEQGFNITYLDIDELSANGQYQCLAELSTSPITVCHGSGISCGNAQSDAAHNALQYLKIIAERK [PRKRA]	0.0756	0.0942	50.1 °C	50 °C
MSRKQNQKDSSGFIFDLQSNTVLAQGGAFENMKEKINAVRAIVPNKSNNEIILVLQHFDNCVDKTVQAFMEGSASEVLKEWTVTGKKKNKKKKNKPKPAAEPSNGIPDSSKSVSIQEEQSAPSSEKGGMNGYHVNGAINDTESVDSLSEGLETLSIDARELEDPESAMLDTLDRTGSMLQNGVSDFETKSLTMHSIHNSQQPRNAAKSLSRPTTETQFSNMGMEDVPLATSKKLSSNIEKSVKDLQRCTVSLARYRVVVKEEMDASIKKMKQAFAELESCLMDREVALLAEMDKVKAEAMEILLSRQKKAELLKKMTHVAVQMSEQQLVELRADIKHFVSERKYDEDLGRVARFTCDVETLKKSIDSFGQVSHPKNSYSTRSRCSSVTSVSLSSPSDASAASSSTCASPPSLTSANKKNFAPGETPAAIANSSGQPYQPLREVLPGNRRGGQGYRPQGQKSNDPMNQGRHDSMGRYRNSSWYSSGSRYQSAPSQAPGNTIERGQTHSAGTNGTGVSMEPSPPTPSFKKGLPQRKPRTSQTEAVNS [SPATS2]	-1.01	0.928	52.2 °C	51.5 °C
MSTGFSFGSGTLGSTTVAAGGTSTGGVFSFGTGASSNPSVGLNFGNLGSTSTPATTSAPSSGFGTGLFGSKPATGFTLGGTNTGIATTITTGLTLGTPATTSAATTGFSLGFNKPAASATPFALPITSTSASGLTLSSALTSTPAASTGFTLNNLGGTTATTTTASTGLSLGGALAGLGGSLFQSTNTGTSGLGQNALGLTLGTTAATSTAGNEGLGGIDFSSSSDKKSDKTGTRPEDSKALKDENLPPVICQDVENLQKFVKEQKQVQEEISRMSSKAMLKVQEDIKALKQLLSLAANGIQRNTLNIDKLKIETAQELKNAEIALRTQKTPPGLQHEYAAPADYFRILVQQFEVQLQQYRQQIEELENHLATQANNSHITPQDLSMAMQKIYQTFVALAAQLQSIHENVKVLKEQYLGYRKMFLGDAVDVFETRRAEAKKWQNTPRVTTGPTPFSTMPNAAAVAMAATLTQQQQPATGPQPSLGVSFGTPFGSGIGTGLQSSGLGSSNLGGFGTSSGFGCSTTGASTFGFGTTNKPSGSLSAGFGSSSTSGFNFSNPGITASAGLTFGVSNPASAGFGTGGQLLQLKKPPAGNKRGKR [NUP58]	0.542	0.234	54.1 °C	52.7 °C
MSTGPTAATGSNRRLQQTQNQVDEVVDIMRVNVDKVLERDQKLSELDDRADALQAGASQFETSAAKLKRKYWWKNCKMWAIGITVLVIFIIIIIVWVVSS [VAMP3]	0.0764	-0.16		54.7 °C
MTDRYTIHSQLEHLQSKYIGTGHADTTKWEWLVNQHRDSYCSYMGHFDLLNYFAIAENESKARVRFNLMEKMLQPCGPPADKPEEN [SF3B5]	-0.73	0.221	52.7 °C	51.1 °C
MTELAGASSSCCHRPAGRGAMQSVLHHFQRLRGREGGSHFINTSSPRGEAKMSITSDEVNFLVYRYLQESGFSHSAFTFGIESHISQSNINGTLVPPAALISILQKGLQYVEAEISINEDGTVFDGRPIESLSLIDAVMPDVVQTRQQAFREKLAQQQASAAAAAAAATAAATAATTTSAGVSHQNPSKNREATVNGEENRAHSVNNHAKPMEIDGEVEIPSSKATVLRGHESEVFICAWNPVSDLLASGSGDSTARIWNLNENSNGGSTQLVLRHCIREGGHDVPSNKDVTSLDWNTNGTLLATGSYDGFARIWTEDGNLASTLGQHKGPIFALKWNRKGNYILSAGVDKTTIIWDAHTGEAKQQFPFHSAPALDVDWQNNTTFASCSTDMCIHVCRLGCDRPVKTFQGHTNEVNAIKWDPSGMLLASCSDDMTLKIWSMKQEVCIHDLQAHNKEIYTIKWSPTGPATSNPNSNIMLASASFDSTVRLWDIERGVCTHTLTKHQEPVYSVAFSPDGKYLASGSFDKCVHIWNTQSGNLVHSYRGTGGIFEVCWNARGDKVGASASDGSVCVLDLRK [TBL1X]	-0.043	-0.0781		52.5 °C
